Earlier results, collected in PMC6359176.

Target: α-synuclein preformed fibrils (Homo sapiens) (UniProt P37840)

Kd: 77 nM
Substance: LAG3 (from UniProt Q61790)
